Data: the supplement of paper PMC9112550, “Optimization of the antimicrobial peptide Bac7 by deep mutational scanning” (BMC Biology, 2022)

Tested on: Escherichia coli TOP10
Assay: shrunken log2 fold change of peptide-encoding DNA abundance (4.5 h post-induction vs induction); higher = less antimicrobial activity (less host growth inhibition)
Details: time post-induction: 4.5 h; library: site-saturation at positions 5, 18, 19, 20
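Note: peptides expressed intracellularly from a pBAD plasmid library in pooled LB shake-flask culture, induced with 0.3% L-arabinose, DNA abundance read by NGS, three biological replicates, DESeq2 with apeglm shrinkage.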

Sequence	shrunken log2 fold change
RRIRARPPRLPRPRPRPFKTPRP	0.0511
RRIRARPPRLPRPRPRPFLKPRP	-0.349
RRIRARPPRLPRPRPRPFNAPRP	-0.307
RRIRARPPRLPRPRPRPFPLPRP	-0.0297
RRIRARPPRLPRPRPRPFQGPRP	0.0242
RRIRARPPRLPRPRPRPFQNPRP	-0.124
RRIRARPPRLPRPRPRPFQRPRP	-0.0439
RRIRARPPRLPRPRPRPFQSPRP	0.105
RRIRARPPRLPRPRPRPFSDPRP	-0.169
RRIRARPPRLPRPRPRPFTLPRP	-0.543
RRIRARPPRLPRPRPRPFVMPRP	-0.181
RRIRARPPRLPRPRPRPFWPPRP	0.412
RRIRARPPRLPRPRPRPFWSPRP	0.061
RRIRARPPRLPRPRPRPFWVPRP	-0.0841
RRIRARPPRLPRPRPRPFYCPRP	-0.402
RRIRARPPRLPRPRPRPFYIPRP	-0.309
RRIRARPPRLPRPRPRPGCAPRP	0.947
RRIRARPPRLPRPRPRPGDLPRP	0.796
RRIRARPPRLPRPRPRPGDSPRP	0.339
RRIRARPPRLPRPRPRPGEEPRP	0.999

Sequence	shrunken log2 fold change
RRIRARPPRLPRPRPRPGFFPRP	0.509
RRIRARPPRLPRPRPRPGGFPRP	0.518
RRIRARPPRLPRPRPRPGGLPRP	0.936
RRIRARPPRLPRPRPRPGHTPRP	0.129
RRIRARPPRLPRPRPRPGIQPRP	-0.041
RRIRARPPRLPRPRPRPGKTPRP	0.312
RRIRARPPRLPRPRPRPGLCPRP	0.553
RRIRARPPRLPRPRPRPGLFPRP	0.601
RRIRARPPRLPRPRPRPGLPPRP	0.709
RRIRARPPRLPRPRPRPGMGPRP	0.639
RRIRARPPRLPRPRPRPGMRPRP	0.545
RRIRARPPRLPRPRPRPGNSPRP	-0.108
RRIRARPPRLPRPRPRPGPAPRP	0.873
RRIRARPPRLPRPRPRPGRSPRP	0.206
RRIRARPPRLPRPRPRPGRVPRP	0.612
RRIRARPPRLPRPRPRPGRWPRP	0.609
RRIRARPPRLPRPRPRPGSVPRP	0.301
RRIRARPPRLPRPRPRPGTNPRP	0.204
RRIRARPPRLPRPRPRPGVHPRP	0.243
RRIRARPPRLPRPRPRPHDCPRP	-0.16

Sequence	shrunken log2 fold change
RRIRARPPRLPRPRPRPHDDPRP	-0.0805
RRIRARPPRLPRPRPRPHDEPRP	-0.00385
RRIRARPPRLPRPRPRPHDWPRP	0.295
RRIRARPPRLPRPRPRPHFQPRP	0.0811
RRIRARPPRLPRPRPRPHHDPRP	-0.0472
RRIRARPPRLPRPRPRPHHYPRP	-0.223
RRIRARPPRLPRPRPRPHIIPRP	-0.0334
RRIRARPPRLPRPRPRPHIPPRP	-0.671
RRIRARPPRLPRPRPRPHKHPRP	0.0909
RRIRARPPRLPRPRPRPHKLPRP	0.214
RRIRARPPRLPRPRPRPHKNPRP	0.0543
RRIRARPPRLPRPRPRPHMTPRP	-0.0862
RRIRARPPRLPRPRPRPHMWPRP	-0.000358
RRIRARPPRLPRPRPRPHPSPRP	0.327
RRIRARPPRLPRPRPRPHPWPRP	-0.00896
RRIRARPPRLPRPRPRPHSLPRP	0.314
RRIRARPPRLPRPRPRPHSTPRP	0.0355
RRIRARPPRLPRPRPRPHVTPRP	0.0281
RRIRARPPRLPRPRPRPHWAPRP	-0.0191
RRIRARPPRLPRPRPRPICPPRP	0.0597
